Experimental data: paper PMC9482650, “Quantitative fragmentomics allow affinity mapping of interactomes” (Nature Communications, 2022)

How the values were obtained:
Test in all cases: holdup assay
Design in all cases: key: below the threshold = too weak to quantify, mostly under pKd 3.1 to 4
Conditions in all cases: plain residues with an end cap or a label only (N-terminal biotin on a linker: ado-ado)
APBA2_2, Q99767 = target: T1, APBA2_2, Q99767
T1 sequence (Q99767 654-744, limits assumed, looked up): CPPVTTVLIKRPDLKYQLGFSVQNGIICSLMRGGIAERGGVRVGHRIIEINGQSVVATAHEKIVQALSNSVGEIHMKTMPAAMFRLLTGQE

GORASP1, Q9BQQ3 = target: GORASP1, Q9BQQ3
GORASP1, Q9BQQ3, sequence (Q9BQQ3 1-208): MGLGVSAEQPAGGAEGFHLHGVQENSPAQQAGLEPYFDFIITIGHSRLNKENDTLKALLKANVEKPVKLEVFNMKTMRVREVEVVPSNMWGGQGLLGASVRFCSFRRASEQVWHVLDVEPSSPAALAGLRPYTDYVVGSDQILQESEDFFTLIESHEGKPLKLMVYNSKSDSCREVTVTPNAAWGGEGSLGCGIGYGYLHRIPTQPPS

GRIP2_5, Q9C0E4 = target: GRIP2_5, Q9C0E4
GRIP2_5, Q9C0E4, sequence (Q9C0E4 544-642): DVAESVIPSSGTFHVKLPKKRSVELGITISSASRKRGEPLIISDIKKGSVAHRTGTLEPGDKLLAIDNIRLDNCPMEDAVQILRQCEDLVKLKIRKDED

DLG4_1, P78352 = target: DLG4_1, P78352
DLG4_1, P78352, sequence (P78352 62-152): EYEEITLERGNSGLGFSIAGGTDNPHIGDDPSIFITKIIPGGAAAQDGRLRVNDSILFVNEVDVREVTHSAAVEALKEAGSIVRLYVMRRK

APBA2_1, Q99767 = target: T2, APBA2_1, Q99767
T2 sequence (Q99767 563-664, limits assumed, looked up): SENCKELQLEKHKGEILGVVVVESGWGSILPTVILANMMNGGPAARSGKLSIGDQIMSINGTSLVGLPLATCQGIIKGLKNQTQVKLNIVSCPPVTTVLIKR

PTPN13_1, Q12923 = target: T3, PTPN13_1, Q12923
T3 sequence (Q12923 1088-1188, limits assumed, looked up): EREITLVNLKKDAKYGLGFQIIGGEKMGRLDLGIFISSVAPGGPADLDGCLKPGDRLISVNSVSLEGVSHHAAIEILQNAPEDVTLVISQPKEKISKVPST

PDZRN3_1, Q9UPQ7 = target: T4, PDZRN3_1, Q9UPQ7
T4 sequence (Q9UPQ7 244-349, limits assumed, looked up): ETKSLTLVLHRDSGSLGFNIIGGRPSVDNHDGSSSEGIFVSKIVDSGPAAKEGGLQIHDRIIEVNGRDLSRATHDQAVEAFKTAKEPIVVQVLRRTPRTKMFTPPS

PARD3B_1, Q8TEW8 = target: T5, PARD3B_1, Q8TEW8
T5 sequence (Q8TEW8 196-299, limits assumed, looked up): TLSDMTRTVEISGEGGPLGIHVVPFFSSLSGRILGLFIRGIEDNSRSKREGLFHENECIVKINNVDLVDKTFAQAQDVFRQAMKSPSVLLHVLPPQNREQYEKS

MPDZ_10, O75970 = target: T6, MPDZ_10, O75970
T6 sequence (O75970 1624-1722, limits assumed, looked up): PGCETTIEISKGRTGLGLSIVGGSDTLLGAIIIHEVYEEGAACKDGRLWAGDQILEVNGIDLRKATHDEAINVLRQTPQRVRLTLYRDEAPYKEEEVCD

MAGI1_1, Q96QZ7 = target: MAGI1_1, Q96QZ7
MAGI1_1, Q96QZ7, sequence (Q96QZ7 1-106): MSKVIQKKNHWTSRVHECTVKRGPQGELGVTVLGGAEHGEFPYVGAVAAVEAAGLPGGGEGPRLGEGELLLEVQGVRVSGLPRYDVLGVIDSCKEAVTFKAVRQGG

NHERF2_2, Q15599 = target: NHERF2_2, Q15599
NHERF2_2, Q15599, sequence (Q15599 142-238): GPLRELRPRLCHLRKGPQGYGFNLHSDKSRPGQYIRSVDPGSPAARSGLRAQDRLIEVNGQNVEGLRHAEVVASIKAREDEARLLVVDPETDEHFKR

GRIP2_3, Q9C0E4 = target: GRIP2_3, Q9C0E4
GRIP2_3, Q9C0E4, sequence (Q9C0E4 238-339): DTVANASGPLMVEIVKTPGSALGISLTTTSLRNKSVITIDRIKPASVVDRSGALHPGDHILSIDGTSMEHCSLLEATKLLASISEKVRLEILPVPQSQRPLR

FRMPD2_3, Q68DX3 = target: FRMPD2_3, Q68DX3
FRMPD2_3, Q68DX3, sequence (Q68DX3 1073-1166): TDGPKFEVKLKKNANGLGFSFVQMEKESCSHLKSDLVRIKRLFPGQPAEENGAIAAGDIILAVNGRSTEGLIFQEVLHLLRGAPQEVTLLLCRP

LNX1_2, Q8TBB1 = target: LNX1_2, Q8TBB1
LNX1_2, Q8TBB1, sequence (Q8TBB1 371-470): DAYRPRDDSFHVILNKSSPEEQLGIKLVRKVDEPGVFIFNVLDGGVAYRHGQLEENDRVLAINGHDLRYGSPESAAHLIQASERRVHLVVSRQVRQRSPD

HTRA2, O43464 = target: HTRA2, O43464
HTRA2, O43464, sequence (O43464 355-458): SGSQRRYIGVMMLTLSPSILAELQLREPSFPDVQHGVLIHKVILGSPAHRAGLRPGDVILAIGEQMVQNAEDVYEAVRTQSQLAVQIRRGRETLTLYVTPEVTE

GRIP2_6, Q9C0E4 = target: GRIP2_6, Q9C0E4
GRIP2_6, Q9C0E4, sequence (Q9C0E4 648-740): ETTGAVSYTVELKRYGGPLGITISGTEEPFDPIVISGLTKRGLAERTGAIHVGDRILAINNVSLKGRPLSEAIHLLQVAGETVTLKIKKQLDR

PARD3_3, Q8TEW0 = target: PARD3_3, Q8TEW0
PARD3_3, Q8TEW0, sequence (Q8TEW0 582-685): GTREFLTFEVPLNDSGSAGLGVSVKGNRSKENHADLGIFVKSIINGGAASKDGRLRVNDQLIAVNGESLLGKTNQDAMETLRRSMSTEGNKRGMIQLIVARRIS

NHERF3_1, Q5T2W1 = target: T7, NHERF3_1, Q5T2W1
T7 sequence (Q5T2W1 4-100, limits assumed, looked up): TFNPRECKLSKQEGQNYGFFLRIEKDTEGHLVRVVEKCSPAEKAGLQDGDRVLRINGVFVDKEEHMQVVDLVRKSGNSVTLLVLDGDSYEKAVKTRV

GRIP2_4, Q9C0E4 = target: GRIP2_4, Q9C0E4
GRIP2_4, Q9C0E4, sequence (Q9C0E4 446-548): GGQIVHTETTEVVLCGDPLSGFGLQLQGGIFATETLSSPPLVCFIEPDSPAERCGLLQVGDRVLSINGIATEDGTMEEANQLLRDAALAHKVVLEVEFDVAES

DFNB31_1, Q9P202 = target: T8, DFNB31_1, Q9P202
T8 sequence (Q9P202 135-233, limits assumed, looked up): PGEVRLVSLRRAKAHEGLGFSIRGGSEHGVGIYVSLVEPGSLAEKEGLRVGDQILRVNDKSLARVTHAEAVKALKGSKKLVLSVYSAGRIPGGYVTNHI

FRMPD3, Q5JV73 = target: FRMPD3, Q5JV73
FRMPD3, Q5JV73, sequence (Q5JV73 12-100): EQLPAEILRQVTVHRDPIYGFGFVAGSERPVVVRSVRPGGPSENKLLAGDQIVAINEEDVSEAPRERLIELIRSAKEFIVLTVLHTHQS

TIAM2, Q8IVF5 = target: T9, TIAM2, Q8IVF5
T9 sequence (Q8IVF5 885-986, limits assumed, looked up): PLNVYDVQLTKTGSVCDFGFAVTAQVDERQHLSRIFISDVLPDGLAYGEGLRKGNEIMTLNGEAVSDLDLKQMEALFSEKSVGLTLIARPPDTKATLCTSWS

GRIP1_2, Q9Y3R0 = target: T10, GRIP1_2, Q9Y3R0
T10 sequence (Q9Y3R0 145-248, limits assumed, looked up): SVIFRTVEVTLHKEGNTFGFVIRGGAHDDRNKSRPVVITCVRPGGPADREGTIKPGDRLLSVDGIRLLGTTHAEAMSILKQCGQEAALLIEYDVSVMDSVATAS

LAP2, Q96RT1 = target: LAP2, Q96RT1
LAP2, Q96RT1, sequence (Q96RT1 other isoform, or with tags, fused parts or gaps): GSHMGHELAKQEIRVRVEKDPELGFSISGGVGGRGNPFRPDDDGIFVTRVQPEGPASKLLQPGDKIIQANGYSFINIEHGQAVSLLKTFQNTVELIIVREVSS

SNTG2, Q9NY99 = target: T11, SNTG2, Q9NY99
T11 sequence (Q9NY99 68-166, limits assumed, looked up): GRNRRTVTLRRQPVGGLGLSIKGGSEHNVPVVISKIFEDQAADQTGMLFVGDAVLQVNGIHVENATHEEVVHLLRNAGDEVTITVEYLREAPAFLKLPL

LNX1_1, Q8TBB1 = target: LNX1_1, Q8TBB1
LNX1_1, Q8TBB1, sequence (Q8TBB1 261-371): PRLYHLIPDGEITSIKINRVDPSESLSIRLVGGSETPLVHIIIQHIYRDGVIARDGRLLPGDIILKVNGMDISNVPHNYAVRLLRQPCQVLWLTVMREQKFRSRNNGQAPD

Inadl_2, Q8NI35 = target: Inadl_2, Q8NI35
Inadl_2, Q8NI35, sequence (Q8NI35 238-335): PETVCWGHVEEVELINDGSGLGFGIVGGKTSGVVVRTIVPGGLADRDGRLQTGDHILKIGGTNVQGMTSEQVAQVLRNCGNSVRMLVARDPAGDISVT

Binder | pKd (APBA2_2, Q99767) | pKd (GORASP1, Q9BQQ3) | pKd (GRIP2_5, Q9C0E4) | pKd (DLG4_1, P78352) | pKd (APBA2_1, Q99767) | pKd (PTPN13_1, Q12923) | pKd (PDZRN3_1, Q9UPQ7) | pKd (PARD3B_1, Q8TEW8) | pKd (MPDZ_10, O75970) | pKd (MAGI1_1, Q96QZ7) | pKd (NHERF2_2, Q15599) | pKd (GRIP2_3, Q9C0E4) | pKd (FRMPD2_3, Q68DX3) | pKd (LNX1_2, Q8TBB1) | pKd (HTRA2, O43464) | pKd (GRIP2_6, Q9C0E4) | pKd (PARD3_3, Q8TEW0) | pKd (NHERF3_1, Q5T2W1) | pKd (GRIP2_4, Q9C0E4) | pKd (DFNB31_1, Q9P202) | further results
PSDSVGKDVF [EGLN1, Q9GZT9] | below the threshold | below the threshold | below the threshold | below the threshold | below the threshold | below the threshold | below the threshold | 3.5 | below the threshold | below the threshold | below the threshold | below the threshold | below the threshold | below the threshold | below the threshold | below the threshold | below the threshold | below the threshold | below the threshold | 3.49 | pKd (FRMPD3, Q5JV73): below the threshold; pKd (TIAM2, Q8IVF5): 4.05; pKd (GRIP1_2, Q9Y3R0): below the threshold; pKd (LAP2, Q96RT1): below the threshold; pKd (SNTG2, Q9NY99): below the threshold; pKd (LNX1_1, Q8TBB1): below the threshold; pKd (Inadl_2, Q8NI35): below the threshold
THREVKFTSL [CD46, P15529] | below the threshold | below the threshold | below the threshold | below the threshold | below the threshold | below the threshold | 4.27 | 4.24 | below the threshold | below the threshold | 4.36 | below the threshold | below the threshold | below the threshold | below the threshold | 3.98 | below the threshold | 5.18 | below the threshold | 3.82 | pKd (FRMPD3, Q5JV73): below the threshold; pKd (TIAM2, Q8IVF5): 4.06; pKd (GRIP1_2, Q9Y3R0): below the threshold; pKd (LAP2, Q96RT1): below the threshold; pKd (SNTG2, Q9NY99): 4.05; pKd (LNX1_1, Q8TBB1): 3.5; pKd (Inadl_2, Q8NI35): below the threshold
QKNKDREYYV [NRXN3, Q9HDB5] | below the threshold | 4.33 | below the threshold | below the threshold | below the threshold | below the threshold | below the threshold | 4.17 | below the threshold | below the threshold | below the threshold | below the threshold | 4.38 | 4.08 | 4.02 | 4.27 | 4.59 | 4.61 | below the threshold | below the threshold | pKd (FRMPD3, Q5JV73): 4.03; pKd (TIAM2, Q8IVF5): 4.41; pKd (GRIP1_2, Q9Y3R0): below the threshold; pKd (LAP2, Q96RT1): below the threshold; pKd (SNTG2, Q9NY99): 3.5; pKd (LNX1_1, Q8TBB1): 3.65; pKd (Inadl_2, Q8NI35): 4.97
KAEEKPPSKV [SCN4B, Q8IWT1] | below the threshold | below the threshold | below the threshold | below the threshold | below the threshold | below the threshold | below the threshold | below the threshold | 3.71 | below the threshold | below the threshold | below the threshold | below the threshold | below the threshold | below the threshold | below the threshold | below the threshold | below the threshold | below the threshold | 3.57 | pKd (FRMPD3, Q5JV73): below the threshold; pKd (TIAM2, Q8IVF5): below the threshold; pKd (GRIP1_2, Q9Y3R0): below the threshold; pKd (LAP2, Q96RT1): 3.89; pKd (SNTG2, Q9NY99): below the threshold; pKd (LNX1_1, Q8TBB1): 3.49; pKd (Inadl_2, Q8NI35): below the threshold
HDDYFYHDEL [RCN2, Q14257] | below the threshold | below the threshold | below the threshold | 3.54 | below the threshold | below the threshold | below the threshold | 3.7 | below the threshold | below the threshold | 4.11 | below the threshold | below the threshold | below the threshold | below the threshold | below the threshold | 3.96 | 4.34 | below the threshold | below the threshold | pKd (FRMPD3, Q5JV73): below the threshold; pKd (TIAM2, Q8IVF5): below the threshold; pKd (GRIP1_2, Q9Y3R0): below the threshold; pKd (LAP2, Q96RT1): below the threshold; pKd (SNTG2, Q9NY99): below the threshold; pKd (LNX1_1, Q8TBB1): below the threshold; pKd (Inadl_2, Q8NI35): below the threshold
